Assay [1] deals with T1, mono-ubiquitin (UniProt P0CG48 1-76). The assay can be described thus: ITC. On the technique in general: In ITC the heat of successive injections is recorded.
Assay [2] concerns the target T1, mono-ubiquitin. In words: ITC. The source holds these as a separate data set.

Read-outs that look alike come from different tables or passages of the source.

In the case of ARGRWACQSCTFENEAAAVLCSICERPRLA (domain or fragment, human, UniProt Q96EP0 350-379, looked up) [HOIP NZF1 (aa350–379)], the binding result in assay [1] was “binds”.

B1: SHARPIN (SHANK-associated RH domain-interacting protein) (natural protein, human, UniProt Q9H0F6 1-387, looked up)
chain: MAPPAGGAAAAASDLGSAAVLLAVHAAVRPLGAGPDAEAQLRRLQLSADPERPGRFRLELLGAGPGAVNLEWPLESVSYTIRGPTQHELQPPPGGPGTLSLHFLNPQEAQRWAVLVRGATVEGQNGSKSNSPPALGPEACPVSLPSPPEASTLKGPPPEADLPRSPGNLTEREELAGSLARAIAGGDEKGAAQVAAVLAQHRVALSVQLQEACFPPGPIRLQVTLEDAASAASAASSAHVALQVHPHCTVAALQEQVFSELGFPPAVQRWVIGRCLCVPERSLASYGVRQDGDPAFLYLLSAPREAPATGPSPQHPQKMDGELGRLFPPSLGLPPGPQPAASSLPSPLQPSWSCPSCTFINAPDRPGCEMCSTQRPCTWDPLAAAST
As to B1, the binding result in assay [2] is listed as “binds”.
The same measure, in the same setting: then AASSLPSPLQPSWSCPSCTFINAPDRPGCEMCSTQRPCTWDPLAAAST (domain or fragment, human, UniProt Q9H0F6 340-387, looked up) [SHARPIN NZF (340–387)], with “binds”.

Values taken from paper PMC3085511 (Nature, 2011).
